The series deals with the molecule itself. The experiment in a line: crystal structure (chains A and B in the asymmetric unit) and size exclusion chromatography.

These results are taken from patent US20220202763A1 (FLORIDA INTERNATIONAL UNIVERSITY BOARD OF TRUSTEES, published 2022).

B1: PpArsN1 (ArsN1 arsinothricin N-acetyltransferase from Pseudomonas putida KT2440), one subunit (enzyme)
chain: MHSGIDIRVARPEDAEEIQIIYAPIVLNTAISFEEAVPSVEQMRERISTTLQTYPYLVAVREGRVVGYAYASQHRARAAYRWAVDVTVYVAEGQRRSGIARQLYDVLLPVLKRLGYRSAYAGIALPNEGSVGLHERLGFQHIGTFPQVGFKLDAWHDVGYWRFDFGDEGLHPEAPLGFLSQIPVPR
notes: Written as a single subunit; also called phoN1 gene product; not shown: C-terminal six histidine tag from vector pBAD-Myc/His-A; the vector-derived residues between protein and tag are not sta
In the case of B1, the binding result is recorded as “binds”.
